The experiment addresses purified recombinant full-length PNKP (human) (UniProt Q96T60).

For two substances, 3'-phosphatase activity of PNKP (50 fmol) in vitro with 25-400 fmol ATXN3-Q29: stimulation and 3'-phosphatase activity of PNKP (50 fmol) in vitro with 50-200 fmol ATXN3-Q72: decrease results are on record in PMC4310589.

On to “ATXN3-Q29 (WT with 29 polyQ repeats) (from UniProt P54252 1-361) (natural protein)”, for which the 3'-phosphatase activity of PNKP (50 fmol) in vitro with 25-400 fmol ATXN3-Q29: stimulation was 4 fold. Take “ATXN3-Q72 (the pathological form with 72 polyQ repeats) (from UniProt P54252 1-361) (natural protein)”: the 3'-phosphatase activity of PNKP (50 fmol) in vitro with 50-200 fmol ATXN3-Q72: decrease amounted to 3.5 fold.
